Consider 1 protein from patent publication US20040121386.

The target in series [1] is unactive p38.
Series [2] addresses unactive JNK1 (Upstate, Inc.).

B1: His-tagged MKK7γ1 (protein)
chain: AASSLEQKLSRLEAKLKQENREARRRIDLNLDISPQRPRPIIVITLSPAPAPSQRAALQLPLANDGGSRSPSSESSPQHPTPPARPRHMLGLPSTLFTPRSMESIEIDQKLQEIMKQTGYPTIGGQRYQAEINDLENLGEMGSGTCGQVWKMRFRKTGHVIAVKQMRRSGNKEENKRILMDLDVVLKSHDCPYIVQCFGTFITNTDVFIAMELMGTCAEKLKKRMQGPIPERILGKMTVAIVKALYYLKEKHGVIHRDVKPSNILLDERGQIKLCDFGISGRLVDSKAKTRSAGCAAYMAPERIDPPDPTKPDYDIRADVWSLGISLVELATGQFPYKNCKTDFEVLTKVLQEEPPLLPGHMGFSGDFQSFVKDCLTKDHRKRPKYNKLLEHSFIKRYETLEVDVASWFKDVMAKTESPRTSGVLSQPHLPFFR
As to B1, the “phosphorylation in a two-step cascade kinase assay (γ-32P-ATP, SDS/PAGE, autoradiography)” value is “MKK7γ1 was unable to phosphorylate p38” in series [1] and “in turn was able to phosphorylate JNK1” in series [2].
